The record followed here is article PMC4482077.

Assay in all cases: AUC
For test [1], the target named is LiaR^D50E (phosphomimetic mutant of E. faecalis S613 LiaR) (Enterococcus faecalis S613).
Test [2] has as its target LiaR^D191N (adaptive mutant of E. faecalis S613 LiaR) (Enterococcus faecalis S613).
Test [3] concerns the target LiaR^(DBD), isolated DNA binding domain of wild-type E. faecalis S613 LiaR (residues 140-206) (Enterococcus faecalis S613).
In test [4] the target is LiaR^(DBD)D191N, isolated DNA binding domain of E. faecalis S613 LiaR (residues 140-206) with D191N (Enterococcus faecalis S613).
The target of test [5] is E. faecalis S613 LiaR (wild type, full length) (Enterococcus faecalis S613).

As usually defined, the stoichiometry N is a count of units in the complex or per binding partner. As usually defined, the Kd is a measure of binding affinity in units of concentration. Low readings indicate tighter binding, high ones weaker binding.

The substance “LiaR^D50E (phosphomimetic mutant of E. faecalis S613 LiaR) (natural protein)” came in with a stoichiometry N in test [1] of 4.
“LiaR^D191N (adaptive mutant of E. faecalis S613 LiaR) (natural protein)”: in test [2], the Kd is under 60 nM and the stoichiometry N amounted to 4.
“LiaR^(DBD), isolated DNA binding domain of wild-type E. faecalis S613 LiaR (residues 140-206) (domain or fragment)”: in test [3], the Kd was determined as 2000 nM and the stoichiometry N was determined as 2.
“LiaR^(DBD)D191N, isolated DNA binding domain of E. faecalis S613 LiaR (residues 140-206) with D191N (domain or fragment)”: in test [4], the Kd was under 40 nM and the stoichiometry N was determined as 2.
On to “E. faecalis S613 LiaR (wild type, full length) (natural protein)”, for which, in test [5], the Kd is 24000 nM and the stoichiometry N is 4.
